Test results from IntAct's records for PubMed 11447112.

Molecular target: gapa_dicdi gapA (UniProt O00899)
Sequence (O00899 whole entry): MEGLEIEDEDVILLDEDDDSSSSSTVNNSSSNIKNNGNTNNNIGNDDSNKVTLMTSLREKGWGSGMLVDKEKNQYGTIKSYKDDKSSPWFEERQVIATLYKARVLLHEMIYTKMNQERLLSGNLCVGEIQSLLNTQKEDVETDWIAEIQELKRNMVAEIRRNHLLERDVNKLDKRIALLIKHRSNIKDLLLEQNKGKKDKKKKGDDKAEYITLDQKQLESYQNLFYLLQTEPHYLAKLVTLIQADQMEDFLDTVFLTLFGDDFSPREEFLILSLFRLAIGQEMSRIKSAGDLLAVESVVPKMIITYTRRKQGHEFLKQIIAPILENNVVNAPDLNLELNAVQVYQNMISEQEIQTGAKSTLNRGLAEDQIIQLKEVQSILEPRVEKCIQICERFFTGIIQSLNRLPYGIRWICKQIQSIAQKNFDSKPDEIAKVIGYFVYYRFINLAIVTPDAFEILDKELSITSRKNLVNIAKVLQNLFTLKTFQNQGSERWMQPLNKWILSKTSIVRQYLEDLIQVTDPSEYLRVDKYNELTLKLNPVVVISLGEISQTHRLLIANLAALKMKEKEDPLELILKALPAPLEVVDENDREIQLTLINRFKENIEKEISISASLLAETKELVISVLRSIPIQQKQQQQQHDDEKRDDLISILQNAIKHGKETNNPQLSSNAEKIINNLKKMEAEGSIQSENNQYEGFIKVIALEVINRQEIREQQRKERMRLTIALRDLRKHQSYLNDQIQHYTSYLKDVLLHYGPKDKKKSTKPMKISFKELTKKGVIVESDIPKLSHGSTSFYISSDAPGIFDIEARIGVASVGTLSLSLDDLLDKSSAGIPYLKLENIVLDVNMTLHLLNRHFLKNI

effect of a mutation on the interaction: disrupting interaction
Substance: Rho-related protein rac1A (Dictyostelium discoideum (Slime mold)), P34144 G12N
